In patent US20110065645A1, “Compositions and Methods for Modulating Neuron Degeneration and Neuron Guidance” (The Regents of the University of California, priority 2009, published 2011):

Tests used:
[1] = tested on: commissural axons; assay: Axon length of electroporated dissociated commissural neurons on Wnt5a-coated coverslips; format: cell-based, rat
Source text: Fzd3 mediates Wnt-stimulated commissural axon elongation. To directly test the function of PCP components in Wnt-mediated outgrowth of commissural axons, we electroporated DNA constructs to express PCP components in dissociated commissural neurons. The spinal cord of E11.5 mouse or E13 rat contains a ventricle into which plasmid DNA can be introduced (FIG. 28A). After injecting DNA into the central canal and electroporation, the spinal cord was dissected into an “open-book” configuration and then the dorsal spinal cord margin including the progenitor domains was dissociated as previously described ((Augsburger et al., 1999), FIG. 28A). More than 90% of the electroporated and dissociated neurons were TAG-1 immuno-reactive, confirming that they are commissural neurons (Wolf et al., 2008).
This may be due the presence of low endogenous levels of PCP components in these axons following 24 hours of culture (FIGS. 20A-20E).
Electroporated commissural culture. Electroporations of rat E13 spinal cords were completed as previously described (Wolf et al., 2008). Neurons were dissociated from these spinal preps and grown as previously described (Augsburger et al., 1999). […] The axons lengths were quantified with Zeiss LSM510 software, verified with ImageJ quantification, and the data were analyzed with an unpaired two-tailed t test for each electroporation condition.

[2] = molecular target: T1, Fzd3 (Mus musculus, UniProt Q61086); assay: Surface biotinylation and avidin immunoprecipitation of Fzd3 in HEK293T cells; format: cell-based
T1 construct: expressed in transfected cells; host or cells: HEK293T
T1 sequence (Q61086 23-666): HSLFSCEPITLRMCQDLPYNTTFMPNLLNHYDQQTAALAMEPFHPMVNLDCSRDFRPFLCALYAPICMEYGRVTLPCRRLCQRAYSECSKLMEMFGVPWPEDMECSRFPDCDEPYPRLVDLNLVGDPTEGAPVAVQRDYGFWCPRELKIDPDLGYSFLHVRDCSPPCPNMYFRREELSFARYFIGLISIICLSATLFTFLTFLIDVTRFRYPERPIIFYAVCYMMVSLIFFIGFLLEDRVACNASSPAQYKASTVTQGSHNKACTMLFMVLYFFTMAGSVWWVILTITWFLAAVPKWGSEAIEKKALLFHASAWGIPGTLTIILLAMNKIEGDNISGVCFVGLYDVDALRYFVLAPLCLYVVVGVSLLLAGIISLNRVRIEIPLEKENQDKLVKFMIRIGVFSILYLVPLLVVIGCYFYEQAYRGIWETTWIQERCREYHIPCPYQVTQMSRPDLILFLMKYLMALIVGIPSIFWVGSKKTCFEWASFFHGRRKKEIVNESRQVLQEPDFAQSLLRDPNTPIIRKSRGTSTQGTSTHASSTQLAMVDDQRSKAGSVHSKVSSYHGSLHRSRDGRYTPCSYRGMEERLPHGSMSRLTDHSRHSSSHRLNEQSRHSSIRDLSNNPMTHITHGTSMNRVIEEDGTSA
Source text: Dvl and Vgl have antagonistic functions on Fzd3 phosphorylation. […] We transfected Fzd3-mCherry in HEK293T cells then surface biotinylated and immunoprecipitated (IP) the surface molecules with strepavidin-conjugated beads to obtain membrane-localized proteins. […] We tested whether these two Fzd3 bands represent phosphorylation states of the Frizzled3 protein, one being phosphorylated/hyperphosphorylated Fzd3 (p-Fzd3) and the other non-phosphorylated Fzd3. […] Phosphorylation of Fzds has been shown previously in Xenopus oocytes
It has been proposed that Frizzled internalization is necessary for PCP signaling and phenotypes (Gagliardi et al., 2008; Yu et al., 2007). However, it has never been directly tested whether the cell surface level of Fzd, the Wnt-PCP receptor, changes upon Wnt addition. By using our surface biotinylation and immunoprecipitation with avidin, we show here, 15 minutes after Wnt addition, cell surface level of Fzd3-EGFP is diminished (FIG. 18C, Avidin IP, lane 3 anti-EGFP IB). […] This Fzd3 receptor oscillation from and to the membrane appeared to be a Wnt-Fzd specific effect because a non-Wnt binding receptor, such as the Insulin receptor stayed the same throughout the Wnt stimulation (FIG. 18C, Avidin IP, anti-Insulin Rβ IB). The Wnt-dependent Fzd3 oscillation is quantified in FIG. 18D (cross symboled line). […] In addition, PCP components appeared to effect this Wnt dependent oscillation of Fzd3 to and from the membrane. When Dvl1 is over expressed with Fzd3, we found within 30 minutes Fzd3 is unable to be internalized (FIG. 25B, lanes 5-7 and line). However, upon the introduction of Vangl2 into the transfection mix, Fzd3 oscillation is resumed (FIG. 25B, lanes 8-10 and circle symboled line).
Surface biotinylation and immunopreciptiation. 30 hours after transfection with the indicated constructs into HEK293T cells (FuGene, Roche), followed by 8-hour incubation in Optimem and subsequent bath application of recombinant Wnt5a (R&D Systems), surface proteins were subsequently labeled on ice with 1 mg/ml of Sulfo-NHS-LC-Biotin reagent (Pierce). The cell lysates were collect over a period of 30 minutes on ice in the following lysis buffer: 20 mM Tris pH7.6, 150 mM NaCl, 1% Triton, 0.1% SDS, 2.5 mM EDTA, 2.5 mM EGTA, protease Inhibitors (Roche). For the membrane immunoprecipitation, 600 ug of protein extracts were incubated overnight and retrieved by NeutrAvidin-coated Agarose beads (Pierce), the bound fraction was boiled and loaded on SDS-PAGE gel and analyzed by western blot analysis. To visualize the input amount 20 ug of total lysate was loaded, and for the Avidin IPs the total amount was loaded for western blot analysis. The following primary antibodies were used for the immunoblots: α-Frizzled3 (Wang et al., 2006), α-Vangl2 (Santa Cruz), α-mCherry/DsRed (Clontech), α-Jun (Cell Signaling), α-phospho-Jun (Cell Signaling), α-JNK (Cell Signaling), α-phospho-JNK (Cell Signaling), α-Flag (Sigma), α-GAPDH (Chemicon), α-Insulin Rβ (Santa Cruz).

time of Fzd3-EGFP internalization ([2]; high concentration (200 ng/ml), batch #1): 15 minute and two hour
time of Fzd3-EGFP internalization ([2]; high concentration, batch #2): 15 min and 60 min
time of Fzd3-EGFP internalization ([2]; low concentration (100 ng/ml), batch #1): 30 min
cell surface levels of Fzd3 ([2]; upon the addition of Wnt5a): reduction of cell surface levels of Fzd3
B1: Wnt5a: recombinant Wnt5a protein (R&D Systems) (protein, UniProt P41221 62-380, looked up)
Protein Wnt-5a: IIGAQPLCSQLAGLSQGQKKLCHLYQDHMQYIGEGAKTGIKECQYQFRHRRWNCSTVDNTSVFGRVMQIGSRETAFTYAVSAAGVVNAMSRACREGELSTCGCSRAARPKDLPRDWLWGGCGDNIDYGYRFAKEFVDARERERIHAKGSYESARILMNLHNNEAGRRTVYNLADVACKCHGVSGSCSLKTCWLQLADFRKVGDALKEKYDSAAAMRLNSRGKLVQVNSRFNSPTTQDLVYIDPSPDYCVRNESTGSLGTQGRLCNKTSEGMDGCELMCCGRGYDQFKTVQTERCHCKFHWCCYVKCKKCTEIVDQFVCK
increase in axon growth ([1]; control neurons expressing EGFP): ~15%
enhancement of axon length ([1]; neurons over-expressing Fzd3-EGFP, within 24 hours): ~36%
